Data as given in the supplement of paper PMC9233669.
Fewer inactive variants are shown than the library holds.

Assays:
[1] = system: biotinyl-Phe-oxazolone; test: self-aminoacylation, catalytic enhancement (BFO) (fold over background); higher = more active; k-Seq, kA / k0A0; sequences stand for … in GGGAAUGGAUCCACAUCUACGAAUUC…UUCACUGCAGACUUGACGAAGCUG
How it was run: (§1)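 The uncatalyzed rate is the low-activity peak of a bimodal Gaussian fit, and catalytic enhancement is median kA divided by it. The kA values came from pseudo-first-order fits, with 1000 bootstraps, of per-sequence fraction reacted measured by streptavidin capture, triplicate qPCR and Illumina sequencing. Mutagenized RNA pools with a 21-nt variable region (0.43 μM) were reacted with each biotinyl-aminoacyl-oxazolone at 2–1250 μM in 50 μL HEPES/NaCl/KCl/MgCl2/CaCl2 buffer with 5% acetonitrile, pH 6.9–7.0, for 90 minutes at room temperature.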

[2] = system: biotinyl-Ile-oxazolone; test: self-aminoacylation, catalytic enhancement (BIO) (fold over background); higher = more active; k-Seq, kA / k0A0; sequences stand for … in GGGAAUGGAUCCACAUCUACGAAUUC…UUCACUGCAGACUUGACGAAGCUG
How it was run: as §1

[3] = system: biotinyl-Met-oxazolone; test: self-aminoacylation, catalytic enhancement (BMO) (fold over background); higher = more active; k-Seq, kA / k0A0; sequences stand for … in GGGAAUGGAUCCACAUCUACGAAUUC…UUCACUGCAGACUUGACGAAGCUG
How it was run: as §1

[4] = system: biotinyl-Val-oxazolone; test: self-aminoacylation, catalytic enhancement (BVO) (fold over background); higher = more active; k-Seq, kA / k0A0; sequences stand for … in GGGAAUGGAUCCACAUCUACGAAUUC…UUCACUGCAGACUUGACGAAGCUG
How it was run: as §1

[5] = system: biotinyl-Leu-oxazolone; test: self-aminoacylation, catalytic enhancement (BLO) (fold over background); higher = more active; k-Seq, kA / k0A0; sequences stand for … in GGGAAUGGAUCCACAUCUACGAAUUC…UUCACUGCAGACUUGACGAAGCUG
How it was run: as §1

[6] = system: biotinyl-Trp-oxazolone; test: self-aminoacylation, catalytic enhancement (BWO) (fold over background); higher = more active; k-Seq, kA / k0A0; sequences stand for … in GGGAAUGGAUCCACAUCUACGAAUUC…UUCACUGCAGACUUGACGAAGCUG
How it was run: as §1

Row | Sequence | self-aminoacylation [1] | self-aminoacylation [2] | self-aminoacylation [3] | self-aminoacylation [4] | self-aminoacylation [5] | self-aminoacylation [6]
1 | AUUCAACUAGAUCAUCGGGUG [Fam2.2 aminoacylation ribozyme variant] | 9.72 | 1.82 | 2.44 | 1.77 | 2.53 | 2.93
2 | AUUCAACUAGCUCAUCGGGUG [Fam2.2 aminoacylation ribozyme variant] | 15 | 2.04 | 1.74 | 2.45 | 2 | 1.82
3 | AUUCAACUAGGCCAUCGGGUG [Fam2.2 aminoacylation ribozyme variant] | 21.5 | 2.61 | 3.66 | 2.31 | 3.74 | 3.9
4 | AUUCAACUAGGUCAUCAGGUG [Fam2.2 aminoacylation ribozyme variant] | 1.43 | 1.28 | 1.29 | 1.22 | 1.54 | 1.33
5 | AUUCAACUAGGUCAUCGGGCG [Fam2.2 aminoacylation ribozyme variant] | 5.35 | 2.48 | 2.73 | 2.36 | 3.67 | 2.46
6 | AUUCAACUAGGUCAUCGGGGG [Fam2.2 aminoacylation ribozyme variant] | 0.813 | 1.75 | 1.59 | 1.66 | 1.86 | 2.56
7 | AUUCAACUAGGUCAUCGGGUG [Fam2.2 aminoacylation ribozyme variant] | 40.6 | 3.6 | 5.65 | 3.47 | 7.19 | 5.46
8 | AUUCAACUAGGUCAUGGGGUG [Fam2.2 aminoacylation ribozyme variant] | 27.7 | 2.96 | 4.28 | 3.16 | 5.63 | 4.16
9 | AUUCAACUGGGUCAUCGGGUG [Fam2.2 aminoacylation ribozyme variant] | 39.5 | 3.89 | 5.25 | 3.96 | 7.37 | 5.74
10 | AUUCAAGUAGGUCAUCGGGUG [Fam2.2 aminoacylation ribozyme variant] | 36.6 | 3.73 | 5.19 | 3.43 | 7.04 | 5.33
11 | AUUCACAGAGGUCAUCGGGUG [Fam2.2 aminoacylation ribozyme variant] | 45.9 | 4.48 | 6.99 | 5.02 | 7.94 | 6.32
12 | AUUCACAUAGGUAAUCGGGUG [Fam2.2 aminoacylation ribozyme variant] | 34 | 2.65 | 4.85 | 2.6 | 5.2 | 4.8
13 | AUUCACAUAGGUCACCGGGUG [Fam2.2 aminoacylation ribozyme variant] | 42.3 | 4.8 | 5.7 | 4.6 | 7.78 | 5.42
14 | AUUCACAUAGGUCAUCCGGUG [Fam2.2 aminoacylation ribozyme variant] | 55.9 | 5.32 | 7.79 | 5.53 | 9.85 | 7.74
15 | AUUCACAUAGGUCAUCGCGUG [Fam2.2 aminoacylation ribozyme variant] | 108 | 7.23 | 14 | 7.84 | 17.6 | 12.1
16 | AUUCACAUAGGUCAUCGGGUC [Fam2.2 aminoacylation ribozyme variant] | 0.659 | 1.51 | 1.39 | 1.65 | 1.34 | 1.49
17 | AUUCACAUAGGUCAUCGGGUU [Fam2.2 aminoacylation ribozyme variant] | 8.48 | 1.9 | 2.13 | 1.76 | 2.22 | 1.97
18 | AUUCACAUAGGUCAUCGUGUG [Fam2.2 aminoacylation ribozyme variant] | 2.09 | 0.867 | 0.835 | 0.841 | 0.942 | 0.867
19 | AUUCACAUAGGUCCUCGGGUG [Fam2.2 aminoacylation ribozyme variant] | 51.3 | 4.33 | 7.55 | 4.71 | 9.43 | 7.63
20 | AUUCACAUAGGUUAUCGGGUG [Fam2.2 aminoacylation ribozyme variant] | 40.2 | 3.23 | 5.32 | 3.67 | 6.69 | 5.37
21 | AUUCACCAACGUCAUCGGGUG [Fam2.2 aminoacylation ribozyme variant] | 74 | 5.28 | 8.41 | 5.26 | 11.8 | 7.38
22 | AUUCACCAAGGUCAUCAGGUG [Fam2.2 aminoacylation ribozyme variant] | 3.44 | 1.6 | 2.1 | 1.37 | 2.25 | 1.79
23 | AUUCACCAAGGUCAUCUGGUG [Fam2.2 aminoacylation ribozyme variant] | 28 | 2.38 | 3.53 | 2.29 | 5.5 | 3.52
24 | AUUCACCAAGGUCCUCGGGUG [Fam2.2 aminoacylation ribozyme variant] | 76.6 | 4.66 | 8.8 | 5.39 | 11 | 8.35
25 | AUUCACCAUGGUCAUCGGGUG [Fam2.2 aminoacylation ribozyme variant] | 69.7 | 6.21 | 10.3 | 6.37 | 15.6 | 10.5
26 | AUUCACCCAGGACAUCGGGUG [Fam2.2 aminoacylation ribozyme variant] | 30.2 | 2.97 | 2.8 | 3.27 | 2.83 | 3.3
